Measured values taken from publication PMC11005340.

Legend:
[1] = target: HIV-1AD8 Env N332Y (HIV-1 (strain AD8))
[2] = target: HIV-1AD8 Env N332L (HIV-1 (strain AD8))
[3] = target: HIV-1AD8 Env N332E (HIV-1 (strain AD8))

Measured: neutralisation of pseudovirus infection of Cf2-Th/CD4+CCR5+ cells, IC50 (one of the three changes with the highest resistance to PGT121)

PGT121 (antibody)
< 1 µg/mL: all assays above
